In US20220259289A1 (Janssen / Centocor, published 2022):

How the values were obtained:
[1] = target: human serum albumin (human) (UniProt P02768); assay: ELISA, negative control HSA
[2] = target: unrelated Fc-fused recombinant protein; assay: ELISA, negative control Fc protein
[3] = target: T1, recombinant biotinylated CD137 protein (Fc-fusion protein, R&D Systems 838-4B) (human, UniProt Q07011 24-186, biotinylated, sites not stated); assay: ELISA, lysate on biotinylated CD137-Fc
T1 construct: Bought Fc fusion; also called CD137-Fc
Procedure, shortened: (§1)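 Biotinylated CD137-Fc, an unrelated Fc-fusion protein or human serum albumin captured 1 h on streptavidin plates blocked in Starting Block T20; diluted bacterial lysate applied 1 h. Bound binders detected with HRP-conjugated anti-Centyrin antibody (PAB25) for 1 h, then POD substrate read-out.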

[4] = target: T2, human serum albumin (human, UniProt P02768 25-609); assay: ELISA, negative control HSA
T2 construct: Negative control of the ELISA; also called HSA
Procedure, shortened: as §1

[5] = target: extracellular domain of human CD137 on the surface of CHO-K1 cells (human, UniProt Q07011 24-186); assay: flow cytometry on CHO-K1 cells with human CD137 ECD
Experimental: Cell surface binding was analyzed via flow cytometry. Cenyrins were prepared at a maximal concentration of 500 nM in the presence of 125 nM anti His-mIgG1 antibody and then serially diluted in PBS/1% FCS buffer. Samples were then applied to approx 100 000 CHO-Kl cells expressing the extracellular domain of human CD137 on their surface. Unbound Centyrin/Antibody complexes were washed away and bound FN3 domains were detected by the addition of goat anti mouse-FITC labeled antibody. Samples were then aquired by flow cytometry. Subsequently, Mean flurescence intensity was plotted against the log Centyrin concentration and EC50 values were calculated by nonlinear regression using GraphPad Prism.

Chain of human serum albumin (human) (P02768 25-609 limits assumed): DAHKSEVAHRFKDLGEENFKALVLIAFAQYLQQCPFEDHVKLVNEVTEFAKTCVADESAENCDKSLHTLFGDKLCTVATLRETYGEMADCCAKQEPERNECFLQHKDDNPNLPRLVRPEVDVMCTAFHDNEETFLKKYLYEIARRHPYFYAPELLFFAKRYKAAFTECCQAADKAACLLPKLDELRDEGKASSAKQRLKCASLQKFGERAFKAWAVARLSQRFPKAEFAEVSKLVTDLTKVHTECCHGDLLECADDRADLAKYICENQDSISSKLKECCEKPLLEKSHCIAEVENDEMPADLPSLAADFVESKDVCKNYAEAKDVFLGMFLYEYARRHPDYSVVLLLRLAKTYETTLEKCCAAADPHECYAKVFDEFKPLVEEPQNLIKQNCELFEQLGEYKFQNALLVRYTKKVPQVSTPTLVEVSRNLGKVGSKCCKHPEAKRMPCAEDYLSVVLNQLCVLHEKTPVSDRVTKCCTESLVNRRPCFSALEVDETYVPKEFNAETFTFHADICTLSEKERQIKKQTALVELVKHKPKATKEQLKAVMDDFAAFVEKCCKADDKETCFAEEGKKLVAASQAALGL
T2 sequence (P02768 25-609 limits assumed): as above

| Binder | ELISA HSA (RLU) [1] | ELISA Fc Control (RLU) [2] | ELISA CD137 (RLU) [3] | ELISA HSA (RLU) [4] | EC50 [5] |
| --- | --- | --- | --- | --- | --- |
| ISOP193FR9P1H6 (designed binder, not shown: small tags and cut ends) LPAPKNLVVSRVTEDSARLSWTAPDAAFDSFDINYFEQPKGGEAIVLTVPGSERSYDLTGLKPGTEYLVTIYGVKGCDWSDPLSAIFTT | 23000 RLU | 88300 RLU | 1.12e+07 RLU |  |  |
| ISOP193HR9P1A5 (designed binder, not shown: small tags and cut ends) LPAPKNLVVSRVTEDSARLSWTAPDAAFDSFDIYYYELRLGGEAIVLTVPGSERSYDLTGLKPGTEYLVTIYGVKGCGYSAPLSAIVTT | 2080 RLU | 6080 RLU | 1.49e+07 RLU |  |  |
| ISOP193HR9P1A6 (designed binder, not shown: small tags and cut ends) LPAPKNLVVSRVTEDSARLSWTAPDAAFDSFDIYYYELRLGGEAIVLTVPGSERSYDLTGLKPGTEYLVSIYGVKGCGYSDPLSAIFTT | 5120 RLU | 25000 RLU | 1.46e+07 RLU |  |  |
| ISOP193HR9P1A7 (designed binder, not shown: small tags and cut ends) LPAPKNLVVSRVTEDSARLSWTAPDAAFDSFDIYYYELRLGGEAIVLTVPGSERSYDLTGLKPGTEYLVTIYGVKVCNASTPLSAIFTT | 12600 RLU | 48900 RLU | 1.48e+07 RLU |  |  |
| ISOP193HR9P1B7 (designed binder, not shown: small tags and cut ends) LPAPKNLVVSRVTEDSARLSWTAPDAAFDSFEIYYFELRLGGEAIVLTVPGSERSYDLTGLKPGTEYLVSIYGVKGCGYSDPLSAIFTT | 2240 RLU | 13000 RLU | 1.64e+07 RLU |  |  |
| ISOP193HR9P1B11 (designed binder, not shown: small tags and cut ends) LPAPKNLVVSRVTEDSARLSWTAPDAAFDSFEIYYFELRLGGEAIVLTVPGSERSYDLTGLKPGTEYLVTIYGVKGCGYSDPLSAIFTT | 4080 RLU | 15000 RLU | 1.66e+07 RLU |  |  |
| ISOP193HR9P1C7 (designed binder, not shown: small tags and cut ends) LPAPKNLVVSRVTEDSARLSWTAPDAAFDSFEIYYLELDSDGEAIVLTVPGSERSYDLTGLKPGTEYIVTIYGVKVCTGSRPLSAIFTT | 10000 RLU | 71400 RLU | 3.44e+06 RLU |  |  |
| ISOP193HR9P1D8 (designed binder, not shown: small tags and cut ends) LPAPKNLVVSRVTEDSARLSWTAPDAAFDSFDIYYLESGRDGEAIVLTVPGSERSYDLTGLKPGTEYLVSIYGVKGCGYSDPLSAIFTT | 2640 RLU | 10900 RLU | 6.27e+06 RLU |  |  |
| ISOP193HR9P1D11 (designed binder, not shown: small tags and cut ends) LPAPKNLVVSRVTEDSARLSWTAPDAAFDSFDIYYYELRLGGEAIVLTVPGSERSYDLTGLKPGTEYLVTIYGVKVCEQSYPLSAIFTT | 6240 RLU | 48700 RLU | 1.42e+07 RLU |  |  |
| ISOP193HR9P1E2 (designed binder, not shown: small tags and cut ends) LPAPKNLVVSRVTEDSARLSWTAPDAAFDSFEIYYLEWCSGGEAIVLTVPGSERSYDLTGLKPGTEYLVTIYGVKGCAASDPLSAIFTT | 3840 RLU | 13100 RLU | 9.02e+06 RLU |  |  |
| ISOP193HR9P1E6 (designed binder, not shown: small tags and cut ends) LPAPKNLVVSRVTEDSARLSWTAPDAAFDSFEIYYAEFGYYGEAIVLTVPGSERSYDLTGLKPGTEYLVTIYGVKGCAASDPLSAIFTT | 3040 RLU | 20100 RLU | 1.13e+07 RLU |  |  |
| ISOP193ER9P1H2 (designed binder, not shown: small tags and cut ends) LPAPKNLVVSRVTEDSARLSWTAPDAAFDSFRISYLEDVYYGEAIVLTVPGSERSYDLTGLKPGTEYHVGIHGVKGGIDSFPLSAIFTT |  | 1360 RLU | 5.18e+06 RLU | 560 RLU | 27.5 nM |
| ISOP193GR9P1A7 (designed binder, not shown: small tags and cut ends) LPAPKNLVVSRVTEDSARLSWTAPDAAFDSFAIFYHEFANPGEAIDLPVPGSERSYDLTGLKPGTEYDVRIYGVKGGTASIPLDAEFTT |  | 1040 RLU | 2.15e+06 RLU | 480 RLU | 606 nM |
| ISOP193HR9P1A11 (designed binder, not shown: small tags and cut ends) LPAPKNLVVSRVTEDSARLSWTAPDAAFDSFEIYYLEGGRGEAIVLTVPGSERSYDLTGLKPGTEYLVTIYGVKCGWASNPLSAIFTT | 4240 RLU | 28300 RLU | 1.66e+07 RLU |  |  |
